Measured values from PMC6667744 (Pharmacology Research & Perspectives, 2019).

Target: Nanoluc‐RXFP2 (UniProt Q8WXD0 1-754)
Test: FRET or BRET

Nanoluc‐RXFP2, sequence (Q8WXD0 whole entry): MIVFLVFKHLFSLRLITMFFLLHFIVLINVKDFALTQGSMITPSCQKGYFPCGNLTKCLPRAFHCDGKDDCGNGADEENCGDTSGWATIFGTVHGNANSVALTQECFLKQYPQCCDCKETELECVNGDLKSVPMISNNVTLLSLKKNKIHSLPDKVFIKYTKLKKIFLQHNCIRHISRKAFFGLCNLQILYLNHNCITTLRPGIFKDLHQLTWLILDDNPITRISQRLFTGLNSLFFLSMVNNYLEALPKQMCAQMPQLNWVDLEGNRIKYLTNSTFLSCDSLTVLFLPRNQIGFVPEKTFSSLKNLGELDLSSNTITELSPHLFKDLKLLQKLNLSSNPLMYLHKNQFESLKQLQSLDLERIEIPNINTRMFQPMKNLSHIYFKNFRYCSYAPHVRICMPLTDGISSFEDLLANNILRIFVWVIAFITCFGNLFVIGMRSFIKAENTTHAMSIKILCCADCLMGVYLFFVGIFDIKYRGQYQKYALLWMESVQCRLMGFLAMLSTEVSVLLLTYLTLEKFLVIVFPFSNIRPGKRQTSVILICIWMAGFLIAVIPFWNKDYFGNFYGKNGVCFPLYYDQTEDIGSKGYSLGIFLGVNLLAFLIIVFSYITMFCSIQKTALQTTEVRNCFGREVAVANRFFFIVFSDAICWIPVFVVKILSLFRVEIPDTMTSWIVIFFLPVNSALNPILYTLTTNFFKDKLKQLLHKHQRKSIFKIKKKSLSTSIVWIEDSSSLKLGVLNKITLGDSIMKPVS

B1: mCitrine‐RXFP1 (receptor)
chain: QDVKCSLGYFPCGNITKCLPQLLHCNGVDDCGNQADEDNCGDNNGWSLQFDKYFASYYKMTSQYPFEAETPECLVGSVPVQCLCQGLELDCDETNLRAVPSVSSNVTAMSLQWNLIRKLPPDCFKNYHDLQKLYLQNNKITSISIYAFRGLNSLTKLYLSHNRITFLKPGVFEDLHRLEWLIIEDNHLSRISPPTFYGLNSLILLVLMNNVLTRLPDKPLCQHMPRLHWLDLEGNHIHNLRNLTFISCSNLTVLVMRKNKINHLNENTFAPLQKLDELDLGSNKIENLPPLIFKDLKELSQLNLSYNPIQKIQANQFDYLVKLKSLSLEGIEISNIQQRMFRPLMNLSHIYFKKFQYCGYAPHVRSCKPNTDGISSLENLLASIIQRVFVWVVSAVTCFGNIFVICMRPYIRSENKLYAMSIISLCCADCLMGIYLFVIGGFDLKFRGEYNKHAQLWMESTHCQLVGSLAILSTEVSVLLLTFLTLEKYICIVYPFRCVRPGKCRTITVLILIWITGFIVAFIPLSNKEFFKNYYGTNGVCFPLHSEDTESIGAQIYSVAIFLGINLAAFIIIVFSYGSMFYSVHQSAITATEIRNQVKKEMILAKRFFFIVFTDALCWIPIFVVKFLSLLQVEIPGTITSWVVIFILPINSALNPILYTLTTRPFKEMIHRFWYNYRQRKSMDSKGQKTYAPSFIWVEMWPLQEMPPELMKPDLFTYPCEMSLISQSTRLNSYS
BRET signal relative to that of Nanoluc-RXFP1 with mCitrine-RXFP1: ~75%
